This test relates to histone H2B. In words: ADP-ribosylation activity of wild type and mutant recombinant mSir2α proteins on histones. In kind it is biochemical, calf. The following applies: 10 μg recombinant protein; H2B radioactivity, wild type = 100%. The protocol:
Site-directed mutagenesis of mSIR2α core domain was performed with the GeneEditor™ system (Promega, Madison, Wis.) according to the procedure provided by the manufacturer. The mutant recombinant proteins were prepared in the same way as described above.
The typical reaction was performed in 50 or 100 μl of the buffer containing 5 mM Tris-HCl [pH8.0 or 9.0], 4 mM MgCl2, 0.2 mM DTT, 1 μM cold β-NAD^+ (SIGMA®) and 8 μCi nicotinamide adenine dinucleotide 5′[α-^32P]triphosphate (NAD) as a donor of ADP-ribose (˜1000 Ci/mmol, Amersham Pharmacia Biotech). To check the sensitivity to poly- or mono-ADP-ribosylation inhibitors, 3-aminobenzamide (ICN Pharmaceuticals, CA), benzamide, novobiocin and coumermycin A1 (SIGMA®) were added to the reactions prior to adding Sir2 proteins, respectively. The wild type or mutant recombinant proteins (0.5-1 μg for ySir2p and 10 μg of mSir2α) were added with 4 μg of each histone purchased from Roche Molecular Biochemicals (Indianapolis, Ind.). For the peptide experiments, 5-10 μg of unacetylated or acetylated N-terminal tail peptides (amino acids 1-20) of H3 and H4 purchased from Upstate Biotechnology™ (Lake Placid, N.Y.) were used as substrates of the yeast and mouse Sir2 recombinant proteins.
To analyze histone modification, 25 μl of 100% trichloroacetic acid (TCA) solution was mixed to the reaction mixture and left on ice for 15 min. The protein precipitates were centrifuged at 4° C. and washed with 5 or 20% TCA solution twice. The pellets were dissolved in 15 μl of Leammli's sample buffer and boiled for 1.5 min. The proteins were electrophoresed in a 10-20% gradient SDS-PAGE gel. The gel was stained with COOMASSIE® Brilliant Blue R-250 (GibcoBRL Life Technologies™, Frederick, Md.) to check equal loading of histones, dried, and exposed to KODAK® X-OMAT film.
Aliquots of recombinant protein (10 μg) of the wild type recombinant mSir2α (WT), the pET control pET, and the mutant proteins (G253A, G255A, S257A, I262A, F265A, R266A, G270A, P285A, T336A, H355A) were incubated with H2B or H3. […] All of the mutations of highly conserved residues dramatically affected the mono-ADP-ribosylation activity of mSir2α (FIG. 6B). The results were similar using H2B or H3.
The radioactivity of H2B modified by the wild type is assigned to 100% and other data were normalized according to the wild type activity and blots quantitated by Phosphorimaging. The averages and the standard deviations were calculated from two independent experiments. In the core domain of ySir2p, mutations on highly conserved residues also affected the mono-ADP-ribosylation activity. Therefore, the core domain of Sir2 proteins contain the catalytic activity of mono-ADP-ribosylation and the evolutionarily conserved residues in the core domain are essential for this activity.

B1: F265A: recombinant mSir2α core domain mutant, residue changed to alanine (protein)
chain: MADEVALALQAAGSPSAAAAMEAASQPADEPLRKRPRRDGPGLGRSPGEPSAAVAPAAAGCEAASAAAPAALWREAAGAAASAEREAPATAVAGDGDNGSGLRREPRAADDFDDDEGEEEDEAAAAAAAAAIGYRDNLLLTDGLLTNGFHSCESDDDDRTSHASSSDWTPRPRIGPYTFVQQHLMIGTDPRTILKDLLPETIPPPELDDMTLWQIVINILSEPPKRKKRKDINTIEDAVKLLQECKKIIVLTGAGVSVSCGIPDARSRDGIYARLAVDFPDLPDPQAMFDIEYFRKDPRPFFKFAKEIYPGQFQPSLCHKFIALSDKEGKLLRNYTQNIDTLEQVAGIQRILQCHGSFATASCLICKYKVDCEAVRGDIFNQVVPRCPRCPADEPLAIMKPEIVFFGENLPEQFHRAMKYDKDEVDLLIVIGSSLKVRPVALIPSSIPHEVPQILINREPLPHLHFDVELLGDCDVIINELCHRLGGEYAKLCCNPVKLSEITEKPPRPQKELVHLSELPPTPLHISEDSSSPERTVPQDSSVIATLVDQATNNNVNDLEVSESSCVEEKPQEVQTSRNVENINVENPDFKAVGSSTADKNERTSVAETVRKCWPNRLAKEQISKRLEGNQYLFVPPNRYIFHGAEVYSDSEDDVLSSSSCGSNSDSGTCQSPSLEEPLEDESEIEEFYNGLEDDTERPECAGGSGFGADGGDQEVVNEAIATRQELTDVNYPSDKS
modifications: left off: small tags and cut ends
notes: recombinant mSir2α core domain mutant, residue changed to alanine
Regarding B1, the “mono-ADP-ribosylation activity compared to the wild type activity” value was “completely abolished the activity”.

B2: T336A: recombinant mSir2α core domain mutant, residue changed to alanine (protein)
chain: MADEVALALQAAGSPSAAAAMEAASQPADEPLRKRPRRDGPGLGRSPGEPSAAVAPAAAGCEAASAAAPAALWREAAGAAASAEREAPATAVAGDGDNGSGLRREPRAADDFDDDEGEEEDEAAAAAAAAAIGYRDNLLLTDGLLTNGFHSCESDDDDRTSHASSSDWTPRPRIGPYTFVQQHLMIGTDPRTILKDLLPETIPPPELDDMTLWQIVINILSEPPKRKKRKDINTIEDAVKLLQECKKIIVLTGAGVSVSCGIPDFRSRDGIYARLAVDFPDLPDPQAMFDIEYFRKDPRPFFKFAKEIYPGQFQPSLCHKFIALSDKEGKLLRNYAQNIDTLEQVAGIQRILQCHGSFATASCLICKYKVDCEAVRGDIFNQVVPRCPRCPADEPLAIMKPEIVFFGENLPEQFHRAMKYDKDEVDLLIVIGSSLKVRPVALIPSSIPHEVPQILINREPLPHLHFDVELLGDCDVIINELCHRLGGEYAKLCCNPVKLSEITEKPPRPQKELVHLSELPPTPLHISEDSSSPERTVPQDSSVIATLVDQATNNNVNDLEVSESSCVEEKPQEVQTSRNVENINVENPDFKAVGSSTADKNERTSVAETVRKCWPNRLAKEQISKRLEGNQYLFVPPNRYIFHGAEVYSDSEDDVLSSSSCGSNSDSGTCQSPSLEEPLEDESEIEEFYNGLEDDTERPECAGGSGFGADGGDQEVVNEAIATRQELTDVNYPSDKS
modifications: left off: small tags and cut ends
notes: as for B1
B2: the “mono-ADP-ribosylation activity compared to the wild type activity” value is reported as “completely abolished the activity”.

B3: G270A: recombinant mSir2α core domain mutant, residue changed to alanine (protein)
chain: MADEVALALQAAGSPSAAAAMEAASQPADEPLRKRPRRDGPGLGRSPGEPSAAVAPAAAGCEAASAAAPAALWREAAGAAASAEREAPATAVAGDGDNGSGLRREPRAADDFDDDEGEEEDEAAAAAAAAAIGYRDNLLLTDGLLTNGFHSCESDDDDRTSHASSSDWTPRPRIGPYTFVQQHLMIGTDPRTILKDLLPETIPPPELDDMTLWQIVINILSEPPKRKKRKDINTIEDAVKLLQECKKIIVLTGAGVSVSCGIPDFRSRDAIYARLAVDFPDLPDPQAMFDIEYFRKDPRPFFKFAKEIYPGQFQPSLCHKFIALSDKEGKLLRNYTQNIDTLEQVAGIQRILQCHGSFATASCLICKYKVDCEAVRGDIFNQVVPRCPRCPADEPLAIMKPEIVFFGENLPEQFHRAMKYDKDEVDLLIVIGSSLKVRPVALIPSSIPHEVPQILINREPLPHLHFDVELLGDCDVIINELCHRLGGEYAKLCCNPVKLSEITEKPPRPQKELVHLSELPPTPLHISEDSSSPERTVPQDSSVIATLVDQATNNNVNDLEVSESSCVEEKPQEVQTSRNVENINVENPDFKAVGSSTADKNERTSVAETVRKCWPNRLAKEQISKRLEGNQYLFVPPNRYIFHGAEVYSDSEDDVLSSSSCGSNSDSGTCQSPSLEEPLEDESEIEEFYNGLEDDTERPECAGGSGFGADGGDQEVVNEAIATRQELTDVNYPSDKS
modifications: left off: small tags and cut ends
notes: as for B1
Regarding B3, the “mono-ADP-ribosylation activity compared to the wild type activity” value was “completely abolished the activity”.

B4: R266A: recombinant mSir2α core domain mutant, residue changed to alanine (protein)
chain: MADEVALALQAAGSPSAAAAMEAASQPADEPLRKRPRRDGPGLGRSPGEPSAAVAPAAAGCEAASAAAPAALWREAAGAAASAEREAPATAVAGDGDNGSGLRREPRAADDFDDDEGEEEDEAAAAAAAAAIGYRDNLLLTDGLLTNGFHSCESDDDDRTSHASSSDWTPRPRIGPYTFVQQHLMIGTDPRTILKDLLPETIPPPELDDMTLWQIVINILSEPPKRKKRKDINTIEDAVKLLQECKKIIVLTGAGVSVSCGIPDFASRDGIYARLAVDFPDLPDPQAMFDIEYFRKDPRPFFKFAKEIYPGQFQPSLCHKFIALSDKEGKLLRNYTQNIDTLEQVAGIQRILQCHGSFATASCLICKYKVDCEAVRGDIFNQVVPRCPRCPADEPLAIMKPEIVFFGENLPEQFHRAMKYDKDEVDLLIVIGSSLKVRPVALIPSSIPHEVPQILINREPLPHLHFDVELLGDCDVIINELCHRLGGEYAKLCCNPVKLSEITEKPPRPQKELVHLSELPPTPLHISEDSSSPERTVPQDSSVIATLVDQATNNNVNDLEVSESSCVEEKPQEVQTSRNVENINVENPDFKAVGSSTADKNERTSVAETVRKCWPNRLAKEQISKRLEGNQYLFVPPNRYIFHGAEVYSDSEDDVLSSSSCGSNSDSGTCQSPSLEEPLEDESEIEEFYNGLEDDTERPECAGGSGFGADGGDQEVVNEAIATRQELTDVNYPSDKS
modifications: left off: small tags and cut ends
notes: as for B1
As to B4, the “mono-ADP-ribosylation activity compared to the wild type activity” value worked out at 18%.

B5: H355A: recombinant mSir2α core domain mutant, residue changed to alanine (protein)
chain: MADEVALALQAAGSPSAAAAMEAASQPADEPLRKRPRRDGPGLGRSPGEPSAAVAPAAAGCEAASAAAPAALWREAAGAAASAEREAPATAVAGDGDNGSGLRREPRAADDFDDDEGEEEDEAAAAAAAAAIGYRDNLLLTDGLLTNGFHSCESDDDDRTSHASSSDWTPRPRIGPYTFVQQHLMIGTDPRTILKDLLPETIPPPELDDMTLWQIVINILSEPPKRKKRKDINTIEDAVKLLQECKKIIVLTGAGVSVSCGIPDFRSRDGIYARLAVDFPDLPDPQAMFDIEYFRKDPRPFFKFAKEIYPGQFQPSLCHKFIALSDKEGKLLRNYTQNIDTLEQVAGIQRILQCAGSFATASCLICKYKVDCEAVRGDIFNQVVPRCPRCPADEPLAIMKPEIVFFGENLPEQFHRAMKYDKDEVDLLIVIGSSLKVRPVALIPSSIPHEVPQILINREPLPHLHFDVELLGDCDVIINELCHRLGGEYAKLCCNPVKLSEITEKPPRPQKELVHLSELPPTPLHISEDSSSPERTVPQDSSVIATLVDQATNNNVNDLEVSESSCVEEKPQEVQTSRNVENINVENPDFKAVGSSTADKNERTSVAETVRKCWPNRLAKEQISKRLEGNQYLFVPPNRYIFHGAEVYSDSEDDVLSSSSCGSNSDSGTCQSPSLEEPLEDESEIEEFYNGLEDDTERPECAGGSGFGADGGDQEVVNEAIATRQELTDVNYPSDKS
modifications: left off: small tags and cut ends
notes: as for B1
With B5, the “mono-ADP-ribosylation activity compared to the wild type activity” value is on record as “completely abolished the activity”.
